Experiment: yeast display, Sf9 membrane polyspecificity reagent, FACS + sequencing; frameworks hold sequencing errors
Method in brief: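 Polyreactivity labels are assigned by the sorting gate from which each nanobody was recovered. The gates were low and high (top ~1%), set on anti-HA fluorescence for expression and streptavidin fluorescence for reagent binding. Before sorting, galactose-induced (36–48 hours) yeast display cells were stained for 1 hour at 4 °C with 10% biotinylated, detergent-solubilized Sf9 membrane reagent.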

Sequence | polyreactivity (PSR sort gate)
QVKLVESGGGLVQAGGSLRLSCAASGFTFANYAMGWYRQAPGKEREFVAAITKGGGSTNYADSVKGRFTISRDNAKNTVYLQMNSLKPEDTAVYYCNADYFVWYIGRVFSRYGYWGQGTQVTVSS | low polyreactivity
QVKLVESGGGLVQAGGSLRLSCAASGGIFTDYTMGWSRQAPGKERELVAAITWTGGSTYYADSVKGRFTISRYNAKNTVYLQMNSLKPEDTAVYYCSADDYWVNLDYWGQGTQVNVSS | low polyreactivity
QVKLVESGGGLVQAGGSLRLSCAASGLIFQKYAMGWYRQPPGKERELVAAISGGGRTYYADSVKGRFTISRDNSKNTVYLQMNSMKPEDTAVYYCAVYWYYLGYYYYYDFDYWGQGTQVTVSS | high polyreactivity
QVKLVESGGGLVQAGGSLRLSCAASGRICLSYTMGWYRQAPGKERELVATIDSGVSTNYADSVKGRFTITRDNAKNTVYVQMNSLKPEDTAVYYGNADGFYSSHGYDYWGQGTQVTVSS | low polyreactivity
QVKLVESGGGLVQAGGSLRLSCAASGRTFGVYAMGWYRQAPGKEREFVATITSRGGRTYYADSVKGRFTISRDNAKNTVYLQMNSLKPEDTAVYYCAVGRGSLRGRTDGGYWGQGTQVTVSS | high polyreactivity
QVKLVESGGGLVQAGGSLRLSCAASGRTISGNAMGWYRQAPGKERELVATISGRGGSTYYADSVKGSFTISRDNAKNTVYLQMTSLKPEDTAVYYCAKRLYSRRPLMDSWGQGTQVTVSS | high polyreactivity
QVKLVESGGGLVQAGGSLRLSCAASGRTLGGYAMRWYRQAPGKERQLVAAITRRGGSRYYADTVKGRFTISRDNAKNTVYLQMNSLKPEDSAVYYCAARWYARSLTRFNYWGKGTQVTVSS | high polyreactivity
QVKLVESGGGLVQAGGSLRLSCAASGSIFSRNTIGCDRQEPGKERELVAGISSSGSRTYYADSVKGRFTISRDNAKNTVYLQMNSLIPEDTAVYYCAAEHQRSRGRRYYIGYDYWGQGTQVTVSS | low polyreactivity
QVKLVESGGGLVQAGGSLRLSCAASGSIYWYAMGWYRQAPGKERELVAAISRRGGSTYYADSVKGRFTISRDNAKNTVYLQMNSLKPEDTAVYYCAVGIYGEYDYWGQGTQVTVSS | high polyreactivity
QVKLVESGGGLVQAGGSLRLSCAASGSTFGINARGWYRQAPGKERELVAAITFISGSTNYADSVKGRFTISRDNAKNTVYLQMNSLKPEDTAVYYCAARCTSTPVYSRYGYWGQGTQVTVSS | low polyreactivity
QVKLVESGGGLVQAGGSLRLSCAASGSTFLIYAMGWYRQAPGKERELVAAITVSGGDTYYADSVKGRFTISRDNAKNTVYLQMNSLKPEDTAVYYCAAEGGNDYSSVDAGISYDYWGQGTQVTVSS | low polyreactivity
QVKLVESGGGLVQAGGSLRLSCAASGSTFVVNAMGCYRQAPGKERELVAAITQSGGSTFYADSVKGRFTISRDNAKNTVYLQMNSLKPEDTAVYYCAADTYYYYWFACYTEYDYWGQGTQVTVSS | low polyreactivity
QVKLVESGGGLVQAGGSLRLSCAAYGSTFAYNAMGWYRQAPGKERELVADISWSGGSTYYADSVKGRFTISRDNAKNTVYLQMNSLNPEDTAVYYCATEYSEGITQFFWATDYDYWGQGSQVTVSS | high polyreactivity
QVKLVESGGGLVQAGGSLRLSCADSGRTFYYNTMGWYRQAPGKERELVADITISGGSTYYADSVKGRFTISRDNAKNTVYLQMKSLKPEDTAVYYCAAGWFSLSTAYYHKRVGYNYWGQGTQVTVSS | high polyreactivity
QVKLVESGGGLVQAGGSLRLSCAPSARIFDIYPLGWSRQAPGKERELVAGITSVGSTNYADSVKGRFTISRDNAKYTVYLQMTSLNPEDTAVYDCASVTSVHSEVDYWGQGTQVTVSS | low polyreactivity
QVKLVESGGGLVQAGGSLRLSCHASGFTFPYYAMGWYRQAPGKERELVAAISQIGDRTYYADSVKGRFTISRDNAKNTVYLQMNSLKPEDTAVYYCNGAGKVRKYGYWGQGTQVTVSS | high polyreactivity
QVKLVESGGGLVQAGGSLSLSCDASGNTFVRNVMGSYRQEPGKERELLAAIRSGTRTYYADSVKGRFTISRDNAKNTVYLQINSLKPEDTAVYYCATYRTYNSYRYDYWGQGTQVTVSS | high polyreactivity
QVKLVESGGGLVQSGGSLRLRCAASGSTITGYAMGWYRQAPRKERDLVAAITYTGTSTYYADTVKGRYTISRDNAKNTVYLEMNSLNPEDTAVYYCAARLAWWKTYIRYYYWGKGTQVTVSS | high polyreactivity
QVKLVESGGRLVQAGGSLRLSCAASGIIFFSYAMRSYRQAPGKERELVAAISGTGGNTYYADSVKGRFTISRDNAKNTVYFQMNSLKPEDTAVYYCAADQEWYYYFVSFAYYILDYWGQGTEVTVSS | high polyreactivity
QVKLVESGGRLVQAGGSLRLTCAASGFIFLNYSMGWYRQAHGKERELVAAISRSGGRTYYADSVTGRFTISRDYAKNTVYLQMNSLKPEDPAVYYCAVYIYGIVFYFTYMYVNCYDYWGQGTQVTVSS | high polyreactivity
QVKLVESGGVLVQAGGSLRLSCAASGSIFVYNAMGWYRQAPGKERELVAAISQRGGSTYYADSVKGRFTISRDNAKNSVYLQMNSLKPEDTAVYYCAAGPGDSGDDYWGQGSQVTVSS | low polyreactivity

Sequence | polyreactivity (PSR sort gate)
QVKLVESGRGLVQAGGSLRISCDASGSIFYYYAMGWYRQAPGKERELVAAINGGDTNYADSVKGRFTISRDNAKNTVYLQMTSLKPEDTAVYYCAAEGVTVEWDYDYWGQATQVTVSS | low polyreactivity
QVKLVESGRGLVQAGGSLRLSCAASGFTFRYYGMGWYRQAPGKERELVASITASGVSTSYADSVKGRFTISRDNAKNTVYLQMNSLKPEDTAVYYCNAVVGAWSLFDYWGQGTQVTVSS | high polyreactivity
QVKLVESGRGLVQAGGSLRLSCAASGYKCIVYTMGWYRQAPGKERELVAAISSGGITAYADSVKGRITISRDNAKNTVYLQMNSLKPEYTAVYYWGQGTQVTVSS | low polyreactivity
QVKLVESRGGLVQAGGSLRLSCAASGFTFFLYTMGWYRQAPGKERELVATITSAGTTNYADSVKGRFTISRDNAKNTVYLQMNSLIPEDTAVYYCNADRWEYDYWGQGTQVTVSS | low polyreactivity
QVKLVQSGGGLVEAGGSLLLSCAASGRIFDQYAMGWYRPAPGKERELVAAITTSGDNTYYADSVKGRFTISRDNAKNTVYLQMNSLKPEDTAVYYCKVDIDTFWYGSDYWGQVTQVTVSS | high polyreactivity
QVLLQESGGALVQAGGSLRLSCAASGTISTDIRMGWYRLAPGKEPEFVASIDGCSTTYYADSVKVRFTISRDNEKNTVYLQMNSLKPEDTAMYYCAAREATEFYLYYWGQGTQVTVSS | low polyreactivity
QVLLQESGGGLVQAGGSLRLGCAASGTISPAYYMGRSHQAPGKEREFVAAITYGTNTYYADSVKGRFTISRDNAKNTVYLQMNSLKPEDTAVYYCSATAGYNGAHDYWGQGTQVTVSS | low polyreactivity
QVLLQESGGGLVQAGGSLRLSCAASGSIFLFYTMGWNRQAPVKEREFVAGITLGTTTYNADSVKGRFTISRDNVKNTVYLQKNSLKPEDTAVYYCAVAVGHYTEFWYWGQGTQVTMSS | high polyreactivity
QVLLQESGGLGQAGCSLPMSCAASGSISTALSMGWYRQAPGKERELVATISDGASTNYADSVKGRFTISRVNAKNTVYLQMNSLKPEDTEVYYCADQSQYRQDHRYWGQGTQVTVSS | high polyreactivity
QVLLVESAAGLVQAGGSLRLSCAASGSTFQGNAMGGYRKAPGKERELVAAISRSGGSTYADSVKGRFTISRDNAKNTVYLQLNSLKPEDTAVYYCAAYSGVGYLWFDYWGQGTQVTVSS | low polyreactivity
QVLLVESCGGLVQAGGSLRLSCAASGRIFPLYAMGWYRQAPGKERELVAAISSGGTTYYADSVKGRFTISRDNAKNTVYLQMNSLKPEDTAVYYCNVEYVISWWMYDYWGQGTQVTVSS | low polyreactivity
QVLLVESGGCLVQAGGILRLSCAASGIIFRSNVMGWYRQEPGKASELVAAISTGGGRTYYADSVKGRFTISRDNAKNTVYLQMNSLKPEDTAVYYCATRDIGKQWTRYYYWGQGTQVTVSS | high polyreactivity
QVLLVESGGGLVHAGGSLRLSCAASGSISKINAMRRYRQAPGKERELVAAINTGDSTYYADSVKGRFTISRDNAKYTGYLQMNSLKPEDTAVYYCAAEGSPSGYDYWGQGTQVNVSS | low polyreactivity
QVLLVESGGGLVQAGGPLRLSCAASGFIIRTNAMGWYREEPGKERELDAAISRRGRTDYADSVKGRFTISRDNAKNTVYLQMKSLTPEESAVYYCNAYYAIQDSVHRYYFWGQGTQGTVSS | high polyreactivity
QVLLVESGGGLVQAGGSLRIICAASGLTFSDYAMRWYRQAPGKERELVAGISSGGSTYYADSVKGRFTISRDNAKNTVYLQMNSLKPEDTAVYYCAATRYNRWPIKFDYWGQGTQVTVSS | high polyreactivity
QVLLVESGGGLVQAGGSLRISCAASVRIVKSYAMGWYRQAPGKESELVAAISRGGRTNYADSVKGRFTISRDNAKNTVYLQMNSLKPEDTAVYYCAARFITPYDHYGYWGQGTQVTVSA | high polyreactivity
QVLLVESGGGLVQAGGSLRLSCAASGFIFRPNAMGWYRQAPGKERELVARITYRGGSTYYADSVKGRFTISRDNAKKTVYLKMNSLKPEDTAVYYCAARAVTYAGYTYNYWGQGTQVTVSS | high polyreactivity
QVLLVESGGGLVQAGGSLRLSCAASGFTFQLYAMGWYRQAPGKEREIVSAIRRNGGSTYYADSVKGRFTISRDNAKNTVYLQMNSLKPDDTAVYYCAADWYSYLHGTKYGYWGQGTQVTVSS | high polyreactivity
QVLLVESGGGLVQAGGSLRLSCAASGRIFYSNVMGWYIQAPGKERELVAAISGRTGGTYYADSVKGRFTISRDNAKNTVYLQMNSLKPEDTAVYYCAARVIYYYGSGPYDYWGQGTQVTVSS | low polyreactivity
QVLLVESGGGLVQAGGSLRLSCAASGRTFSINAMGWDRQAPGKERELVAAITKRRSTYYADSVKGRFTISRDNAKNSVYLQMNSLKPEDTAVYYCNARYRGRVYDRFGYWGQGTQVTVSS | high polyreactivity
